Patent US20140004122A1, “METHODS FOR TREATING OR PREVENTING CHOLESTEROL RELATED DISORDERS” (AMGEN INC., priority 2011, published 2014)
Marks after values point to notes of the source that are not given here.

How the values were obtained:
[1] = biological target: human PCSK9 (Homo sapiens, UniProt Q8NBP7); test: BIAcore affinity analysis; assay type: binding; details: pH 7.4; read-out: KD hPCSK9
Procedure: Briefly, the surface plasmon resonance experiments were performed using Biacore 2000 optical biosensors (Biacore, GE Healthcare, Piscataway, N.J.). […] The concentration of PCSK9 protein was varied at 2 fold intervals (the analyte) and was injected over the immobilized antibody surface (at a flow rate of 100 μl/min for 1.5 minutes). Fresh HBS-P buffer (pH 7.4, 0.01 M Hepes, 0.15 M NaCl, 0.005% surfactant P-20, Biacore) supplemented with 0.01% BSA was used as binding buffer.
The binding signal obtained was proportional to the free PCSK9 in solution.
Antibody binding kinetic parameters including ka (association rate constant), kd (dissociation rate constant), and KD (dissociation equilibrium constant) were determined using the BIA evaluation 3.1 computer program (BIAcore, Inc. Piscataway, N.J.).

[2] = test system: hypercholesterolemic subjects with a 10 year Framingham risk score of 10% or less; test: 12 week monotherapy dose-ranging study (Example 24); assay type: in vivo, human; details: for mean percent reduction from baseline in LDL-C: preliminary; for Least squares mean percent change from baseline (%) in LDL-C / Treatment difference vs ezetimibe (%) in LDL-C / Treatment difference vs placebo (%) in LDL-C: week 12; for Treatment difference vs ezetimibe (%) in LDL-C / Treatment difference vs placebo (%) in LDL-C: P < 0.001
Procedure: Ezetimibe was not blinded. The end-of-study visit and the last estimation of lipids was at week 12 for subjects on Q4W IP schedule or on ezetimibe and week 14 for subjects on Q2W IP schedule.
Males and females, ≧18 to ≦75 years of age, were eligible for this study. Fasting LDL-C was ≧100 mg/dL (2.6 mmol/L) and <190 mg/dL (4.9 mmol/L) and fasting triglycerides ≦400 mg/dL (4.5 mmol/L) by central laboratory at screening.
The primary endpoint was the percent change from baseline in LDL-C at week 12. Secondary endpoints included percent changes in apolipoprotein B (ApoB), lipoprotein (a) (Lp(a)), and in the ratio of total cholesterol to high-density lipoprotein (HDL)-C. Tolerability and safety were also evaluated.

Sequence of human PCSK9 (Q8NBP7 153-692): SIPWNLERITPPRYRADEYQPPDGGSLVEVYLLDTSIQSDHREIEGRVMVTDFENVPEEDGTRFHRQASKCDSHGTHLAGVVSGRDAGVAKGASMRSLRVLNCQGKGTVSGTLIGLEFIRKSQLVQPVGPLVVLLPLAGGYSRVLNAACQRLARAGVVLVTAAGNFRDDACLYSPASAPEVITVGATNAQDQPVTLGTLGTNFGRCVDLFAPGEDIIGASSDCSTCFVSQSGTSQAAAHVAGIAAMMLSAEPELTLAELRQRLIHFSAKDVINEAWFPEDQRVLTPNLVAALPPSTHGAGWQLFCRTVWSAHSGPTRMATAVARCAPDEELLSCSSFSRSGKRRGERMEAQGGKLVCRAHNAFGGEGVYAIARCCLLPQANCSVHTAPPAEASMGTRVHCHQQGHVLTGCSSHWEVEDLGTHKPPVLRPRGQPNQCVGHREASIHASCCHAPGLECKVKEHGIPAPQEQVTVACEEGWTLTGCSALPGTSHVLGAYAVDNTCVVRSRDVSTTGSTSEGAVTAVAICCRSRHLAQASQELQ

B1: 21B12: human anti-PCSK9 monoclonal antibody; light/heavy variable region SEQ ID NO 23/49 (antibody, listed as Homo sapiens, V domains shown)
VH: QVQLVQSGAEVKKPGASVKVSCKASGYTLTSYGISWVRQAPGQGLEWMGWVSFYNGNTNYAQKLQGRGTMTTDPSTSTAYMELRSLRSDDTAVYYCARGYGMDVWGQGTTVTVSS
VL: QSALTQPASVSGSPGQSITISCTGTSSDVGGYNSVSWYQQHPGKAPKLMIYEVSNRPSGVSNRFSGSKSGNTASLTISGLQAEDEADYYCNSYTSTSMVFGGGTKLTVL
- Kd [1]: 0.19 nM
- mean percent reduction from baseline in LDL-C ([2]; 70 mg (Q2W), end of the dosing interval): 41.21%
- mean percent reduction from baseline in LDL-C ([2]; 105 mg (Q2W), end of the dosing interval): 45.44%
- mean percent reduction from baseline in LDL-C ([2]; 140 mg (Q2W)): 51.56%
- mean percent reduction from baseline in LDL-C ([2]; 280 mg (Q4W), end of the dosing interval): 37.53%
- mean percent reduction from baseline in LDL-C ([2]; 350 mg, end of the dosing interval): 42.16%
- mean percent reduction from baseline in LDL-C ([2]; 420 mg): 47.52%
- LDL-C reductions from baseline greater than ezetimibe ([2]; final data): 37%
- change in LDL-C from baseline to week 12 greater than with placebo ([2]; final data): up to 72 mg/dL
- mean reduction from baseline for ApoB ([2]; final data): up to 44%
- mean reduction from baseline for Lp(a) ([2]; final data): up to 29%
- least-squares (LS) mean percent reduction from baseline in LDL-C ([2]; week 12, final data): up to 51%
- Least squares mean percent change from baseline (%) in LDL-C ([2]; Q2W 70 mg SC (N = 45)): −40.98%
- Treatment difference vs ezetimibe (%) in LDL-C ([2]; Q2W 70 mg): −26.73* %
- Treatment difference vs placebo (%) in LDL-C ([2]; Q2W 70 mg): −37.27* %
- Least squares mean percent change from baseline (%) in LDL-C ([2]; Q2W 105 mg SC (N = 46)): −43.87%
- Treatment difference vs ezetimibe (%) in LDL-C ([2]; Q2W 105 mg): −29.62* %
- Treatment difference vs placebo (%) in LDL-C ([2]; Q2W 105 mg): −40.17* %
- Least squares mean percent change from baseline (%) in LDL-C ([2]; Q2W 140 mg SC (N = 45)): −50.93%
- Treatment difference vs ezetimibe (%) in LDL-C ([2]; Q2W 140 mg): −36.68* %
- Treatment difference vs placebo (%) in LDL-C ([2]; Q2W 140 mg): −47.23* %
- Least squares mean percent change from baseline (%) in LDL-C ([2]; Q4W 280 mg SC (N = 45)): −39.02%
- Treatment difference vs ezetimibe (%) in LDL-C ([2]; Q4W 280 mg): −25.17* %
- Treatment difference vs placebo (%) in LDL-C ([2]; Q4W 280 mg): −43.57* %
- Least squares mean percent change from baseline (%) in LDL-C ([2]; Q4W 350 mg SC (N = 45)): −43.20%
- Treatment difference vs ezetimibe (%) in LDL-C ([2]; Q4W 350 mg): −29.34* %
- Treatment difference vs placebo (%) in LDL-C ([2]; Q4W 350 mg): −47.74* %
- Least squares mean percent change from baseline (%) in LDL-C ([2]; Q4W 420 mg SC (N = 45)): −47.98%
- Treatment difference vs ezetimibe (%) in LDL-C ([2]; Q4W 420 mg): −34.14* %
- Treatment difference vs placebo (%) in LDL-C ([2]; Q4W 420 mg): −52.53* %
